The supplement of paper PMC9233669
This sample holds only a part of the variants without activity.

Experiments:
[1] = system: biotinyl-Leu-oxazolone; assay: self-aminoacylation, catalytic enhancement (BLO) (fold over background); higher = more active; k-Seq, kA / k0A0; sequences stand for … in GGGAAUGGAUCCACAUCUACGAAUUC…UUCACUGCAGACUUGACGAAGCUG
Method in brief: (§1)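 Mutagenized RNA pools with a 21-nt variable region (0.43 μM) were reacted with each biotinyl-aminoacyl-oxazolone at 2–1250 μM for 90 minutes at room temperature, in 50 μL HEPES/NaCl/KCl/MgCl2/CaCl2 buffer containing 5% acetonitrile at pH 6.9–7.0. RNA captured on streptavidin was quantified by triplicate qPCR and by Illumina sequencing. The fraction reacted for each sequence was fit to a pseudo-first-order model with bootstrapping, and catalytic enhancement is the median kA divided by the uncatalyzed rate, taken as the low-activity peak of a bimodal Gaussian fit.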

[2] = system: biotinyl-Val-oxazolone; assay: self-aminoacylation, catalytic enhancement (BVO) (fold over background); higher = more active; k-Seq, kA / k0A0; sequences stand for … in GGGAAUGGAUCCACAUCUACGAAUUC…UUCACUGCAGACUUGACGAAGCUG
Method in brief: as §1

[3] = system: biotinyl-Ile-oxazolone; assay: self-aminoacylation, catalytic enhancement (BIO) (fold over background); higher = more active; k-Seq, kA / k0A0; sequences stand for … in GGGAAUGGAUCCACAUCUACGAAUUC…UUCACUGCAGACUUGACGAAGCUG
Method in brief: as §1

[4] = system: biotinyl-Phe-oxazolone; assay: self-aminoacylation, catalytic enhancement (BFO) (fold over background); higher = more active; k-Seq, kA / k0A0; sequences stand for … in GGGAAUGGAUCCACAUCUACGAAUUC…UUCACUGCAGACUUGACGAAGCUG
Method in brief: as §1

[5] = system: biotinyl-Trp-oxazolone; assay: self-aminoacylation, catalytic enhancement (BWO) (fold over background); higher = more active; k-Seq, kA / k0A0; sequences stand for … in GGGAAUGGAUCCACAUCUACGAAUUC…UUCACUGCAGACUUGACGAAGCUG
Method in brief: as §1

[6] = system: biotinyl-Met-oxazolone; assay: self-aminoacylation, catalytic enhancement (BMO) (fold over background); higher = more active; k-Seq, kA / k0A0; sequences stand for … in GGGAAUGGAUCCACAUCUACGAAUUC…UUCACUGCAGACUUGACGAAGCUG
Method in brief: as §1

“AUUAGCCUGGUCAUCGAAUGA [Fam2.1 aminoacylation ribozyme variant]” was tested, and the self-aminoacylation [1] was 1.48, the self-aminoacylation [2] was 1.39 and the self-aminoacylation [3] was 1.36. For the same sequence, the self-aminoacylation [4] was 1.23, the self-aminoacylation [5] was 1.27 and the self-aminoacylation [6] was 1.43.

“AUUAGCCUGGUCAUCGACUGA [Fam2.1 aminoacylation ribozyme variant]” showed a self-aminoacylation [1] of 1.13, a self-aminoacylation [2] of 1.04 and a self-aminoacylation [3] of 1.22. For the same sequence, the self-aminoacylation [4] was 1.59, the self-aminoacylation [5] was 0.565 and the self-aminoacylation [6] was 1.21.

For “AUUAGCCUGGUCAUCGAGAGA [Fam2.1 aminoacylation ribozyme variant]”, the self-aminoacylation [1] was 1.43, the self-aminoacylation [2] was 1.25 and the self-aminoacylation [3] was 1.63. The self-aminoacylation [4] was 1.49, the self-aminoacylation [5] was 1.35 and the self-aminoacylation [6] was 1.08.

For “AUUAGCCUGGUCAUCGAGGGA [Fam2.1 aminoacylation ribozyme variant]”, the self-aminoacylation [1] was 2.52, the self-aminoacylation [2] was 2.4 and the self-aminoacylation [3] was 2.08. The self-aminoacylation [4] was 2.28, the self-aminoacylation [5] was 3.19 and the self-aminoacylation [6] was 1.49.

Sequence “AUUAGCCUGGUCCUCGAGUGA [Fam2.1 aminoacylation ribozyme variant]” has a self-aminoacylation [1] of 5.41, a self-aminoacylation [2] of 2.84 and a self-aminoacylation [3] of 2.67. It also gave a self-aminoacylation [4] of 36.7, a self-aminoacylation [5] of 5.08 and a self-aminoacylation [6] of 4.69.

“AUUAGCCUGGUGAUCGAGUGA [Fam2.1 aminoacylation ribozyme variant]” was tested, and the self-aminoacylation [1] was 7.61, the self-aminoacylation [2] was 3.62 and the self-aminoacylation [3] was 3.98. The self-aminoacylation [4] was 41.1, the self-aminoacylation [5] was 8.57 and the self-aminoacylation [6] was 7.43.

Sequence “AUUAUCCUAGGUCAUCGGGUG [Fam2.2 aminoacylation ribozyme variant]” has a self-aminoacylation [1] of 14.5, a self-aminoacylation [2] of 5.98 and a self-aminoacylation [3] of 6.74. The self-aminoacylation [4] was 54.6, the self-aminoacylation [5] was 9.09 and the self-aminoacylation [6] was 9.84.

“AUUAUCCUGGCCAUCGAGUGA [Fam2.1 aminoacylation ribozyme variant]” was tested, and the self-aminoacylation [1] was 2.98, the self-aminoacylation [2] was 1.69 and the self-aminoacylation [3] was 1.92. For the same sequence, the self-aminoacylation [4] was 13.8, the self-aminoacylation [5] was 2.77 and the self-aminoacylation [6] was 2.99.

With “AUUAUCCUGGGCAUCGAGUGA [Fam2.1 aminoacylation ribozyme variant]” the self-aminoacylation [1] was 6.24, the self-aminoacylation [2] was 2.94 and the self-aminoacylation [3] was 3.07. It also gave a self-aminoacylation [4] of 36.3, a self-aminoacylation [5] of 6.86 and a self-aminoacylation [6] of 5.87.

“AUUAUCCUGGUAAUCGAGUGA [Fam2.1 aminoacylation ribozyme variant]” was tested, and the self-aminoacylation [1] was 14.5, the self-aminoacylation [2] was 5.97 and the self-aminoacylation [3] was 5.94. For the same sequence, the self-aminoacylation [4] was 96.5, the self-aminoacylation [5] was 16.5 and the self-aminoacylation [6] was 13.3.

Sequence “AUUAUCCUGGUCAUCAAGUGA [Fam2.1 aminoacylation ribozyme variant]” has a self-aminoacylation [1] of 3.5, a self-aminoacylation [2] of 2.2 and a self-aminoacylation [3] of 2.3. For the same sequence, the self-aminoacylation [4] was 10.1, the self-aminoacylation [5] was 4.39 and the self-aminoacylation [6] was 3.84.

“AUUAUCCUGGUCAUCGACUGA [Fam2.1 aminoacylation ribozyme variant]” was tested, and the self-aminoacylation [1] was 0.941, the self-aminoacylation [2] was 0.785 and the self-aminoacylation [3] was 0.875. The self-aminoacylation [4] was 0.418, the self-aminoacylation [5] was 0.498 and the self-aminoacylation [6] was 0.65.

“AUUAUCCUGGUCAUCGAGUGG [Fam2.1 aminoacylation ribozyme variant]” gave a self-aminoacylation [1] of 5.03, a self-aminoacylation [2] of 2.27 and a self-aminoacylation [3] of 2.19. The self-aminoacylation [4] was 6.09, the self-aminoacylation [5] was 4.05 and the self-aminoacylation [6] was 5.06.

“AUUCAACUAGGUCAACGGGUG [Fam2.2 aminoacylation ribozyme variant]” showed a self-aminoacylation [1] of 4.91, a self-aminoacylation [2] of 2.31 and a self-aminoacylation [3] of 2.4. The self-aminoacylation [4] was 25.5, the self-aminoacylation [5] was 3.38 and the self-aminoacylation [6] was 4.31.

“AUUCAACUAGGUCAGCGGGUG [Fam2.2 aminoacylation ribozyme variant]” showed a self-aminoacylation [1] of 5.11, a self-aminoacylation [2] of 3.29 and a self-aminoacylation [3] of 3.15. For the same sequence, the self-aminoacylation [4] was 32.2, the self-aminoacylation [5] was 5.13 and the self-aminoacylation [6] was 4.12.

Work on “AUUCAACUAGGUCAUCGAGUG [Fam2.2 aminoacylation ribozyme variant]” yielded a self-aminoacylation [1] of 3.13, a self-aminoacylation [2] of 1.45 and a self-aminoacylation [3] of 1.55. It also gave a self-aminoacylation [4] of 2.85, a self-aminoacylation [5] of 1.84 and a self-aminoacylation [6] of 2.2.

Work on “AUUCAACUAGGUCAUCGGAUG [Fam2.2 aminoacylation ribozyme variant]” yielded a self-aminoacylation [1] of 0.772, a self-aminoacylation [2] of 0.708 and a self-aminoacylation [3] of 0.675. The self-aminoacylation [4] was 0.801, the self-aminoacylation [5] was 0.549 and the self-aminoacylation [6] was 0.66.

“AUUCAACUAGGUGAUCGGGUG [Fam2.2 aminoacylation ribozyme variant]” showed a self-aminoacylation [1] of 4.01, a self-aminoacylation [2] of 2.76 and a self-aminoacylation [3] of 3.02. The self-aminoacylation [4] was 21.9, the self-aminoacylation [5] was 4.01 and the self-aminoacylation [6] was 3.11.

Sequence “AUUCAACUCGGUCAUCGGGUG [Fam2.2 aminoacylation ribozyme variant]” has a self-aminoacylation [1] of 9.77, a self-aminoacylation [2] of 3.84 and a self-aminoacylation [3] of 4.15. For the same sequence, the self-aminoacylation [4] was 67.4, the self-aminoacylation [5] was 7.4 and the self-aminoacylation [6] was 6.48.

“AUUCAACUUGGUCAUCGGGUG [Fam2.2 aminoacylation ribozyme variant]” gave a self-aminoacylation [1] of 6.72, a self-aminoacylation [2] of 3.29 and a self-aminoacylation [3] of 3.85. For the same sequence, the self-aminoacylation [4] was 34.1, the self-aminoacylation [5] was 4.45 and the self-aminoacylation [6] was 5.25.

Work on “AUUCACAUAAGUCAUCGGGUG [Fam2.2 aminoacylation ribozyme variant]” yielded a self-aminoacylation [1] of 18.3, a self-aminoacylation [2] of 6.79 and a self-aminoacylation [3] of 7.61. The self-aminoacylation [4] was 95.4, the self-aminoacylation [5] was 12.4 and the self-aminoacylation [6] was 11.8.

“AUUCACAUACGUCAUCGGGUG [Fam2.2 aminoacylation ribozyme variant]” gave a self-aminoacylation [1] of 9.26, a self-aminoacylation [2] of 4.19 and a self-aminoacylation [3] of 4.62. The self-aminoacylation [4] was 53.4, the self-aminoacylation [5] was 6.74 and the self-aminoacylation [6] was 7.22.

For “AUUCACAUAGGGCAUCGGGUG [Fam2.2 aminoacylation ribozyme variant]”, the self-aminoacylation [1] was 3.62, the self-aminoacylation [2] was 3.39 and the self-aminoacylation [3] was 3.83. The self-aminoacylation [4] was 20.9, the self-aminoacylation [5] was 4.52 and the self-aminoacylation [6] was 4.4.

Work on “AUUCACAUAGGUCAGCGGGUG [Fam2.2 aminoacylation ribozyme variant]” yielded a self-aminoacylation [1] of 4.15, a self-aminoacylation [2] of 2.91 and a self-aminoacylation [3] of 3.26. For the same sequence, the self-aminoacylation [4] was 22.6, the self-aminoacylation [5] was 5.03 and the self-aminoacylation [6] was 3.83.

Sequence “AUUCACAUAGGUCAUCGGAUG [Fam2.2 aminoacylation ribozyme variant]” has a self-aminoacylation [1] of 0.649, a self-aminoacylation [2] of 0.857 and a self-aminoacylation [3] of 0.903. It also gave a self-aminoacylation [4] of 0.549, a self-aminoacylation [5] of 0.403 and a self-aminoacylation [6] of 0.698.
